Data from article PMC2935968 (2010).

T1: GST-Rar1 (wild type) (Arabidopsis thaliana (Mouse-ear cress), UniProt Q9SE33)
T1 chain: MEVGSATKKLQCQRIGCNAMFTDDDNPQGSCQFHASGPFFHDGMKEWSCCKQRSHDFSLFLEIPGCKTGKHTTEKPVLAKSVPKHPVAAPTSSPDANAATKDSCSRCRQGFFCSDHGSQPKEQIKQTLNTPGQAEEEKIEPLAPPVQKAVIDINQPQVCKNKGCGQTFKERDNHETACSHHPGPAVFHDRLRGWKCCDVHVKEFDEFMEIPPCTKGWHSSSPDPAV


Columns and labels:
Hsp90 = Hsp90 ( (Arabidopsis H. vulgare or …, UniProt Q7XJ80)); assay: competition GST pull-down; ATPase stimulation
GST-Rar1 (wild type) = molecular target: T1, GST-Rar1 (wild type); assay: GST pull-down; strengthened by Sgt1; ADP enhances the CHORDI-Hsp90 interaction

Sequence of Hsp90 ( (Q7XJ80 entry or part of it): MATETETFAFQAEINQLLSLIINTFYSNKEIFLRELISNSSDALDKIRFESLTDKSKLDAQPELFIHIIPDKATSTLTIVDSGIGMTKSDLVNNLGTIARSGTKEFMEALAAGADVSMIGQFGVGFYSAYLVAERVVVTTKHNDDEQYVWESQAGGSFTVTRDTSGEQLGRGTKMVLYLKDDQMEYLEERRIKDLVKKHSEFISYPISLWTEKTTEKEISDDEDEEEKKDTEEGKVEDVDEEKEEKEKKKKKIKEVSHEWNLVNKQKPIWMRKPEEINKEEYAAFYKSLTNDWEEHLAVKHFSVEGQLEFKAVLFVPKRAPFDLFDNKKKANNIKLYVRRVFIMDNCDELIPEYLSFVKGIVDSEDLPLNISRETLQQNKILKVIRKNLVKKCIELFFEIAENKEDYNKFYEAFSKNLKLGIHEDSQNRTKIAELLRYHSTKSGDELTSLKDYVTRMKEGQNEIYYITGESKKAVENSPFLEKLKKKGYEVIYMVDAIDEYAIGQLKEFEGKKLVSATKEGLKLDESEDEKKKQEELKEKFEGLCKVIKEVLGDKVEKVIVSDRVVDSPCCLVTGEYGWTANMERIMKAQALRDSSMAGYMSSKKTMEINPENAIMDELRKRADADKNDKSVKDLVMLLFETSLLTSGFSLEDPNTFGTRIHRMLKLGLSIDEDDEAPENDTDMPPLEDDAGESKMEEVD
Sequence of Hsp90 (chain): as the sequence (Q7XJ80 entry or part of it) above

binding result (Hsp90)	binding result (GST-Rar1 (wild type))	Binder
binds	–	Rar1 (wild type, not GST-tagged) (protein) MEVGSATKKLQCQRIGCNAMFTDDDNPQGSCQFHASGPFFHDGMKEWSCCKQRSHDFSLFLEIPGCKTGKHTTEKPVLAKSVPKHPVAAPTSSPDANAATKDSCSRCRQGFFCSDHGSQPKEQIKQTLNTPGQAEEEKIEPLAPPVQKAVIDINQPQVCKNKGCGQTFKERDNHETACSHHPGPAVFHDRLRGWKCCDVHVKEFDEFMEIPPCTKGWHSSSPDPAV
–	binds	Hsp90 (protein) not shown
